Measurements from article PMC6497155 (ACS infectious diseases, 2018).

Columns and labels:
[1] = Thermal stability of ClpP homotetradecamers; format: physicochemical
[2] = Storage stability and concentration limit of purified ClpP; format: physicochemical; conditions: purified protein in activity buffer
[3] = system: ClpX; conditions: 200 nM ClpP, 50 nM ClpX; relative to ClpX alone
[4] = system: ClpP2; assay: Proteolytic activity of ClpP2 with DTT; format: biochemical, C. difficile; conditions: varying concentrations of DTT; incubation times exceeding 48 h

| Molecule | Tm ([1]; no ADEP, SYPRO Orange, activity buffer (25 mM HEPES, 100 mM KCl, 5 mM MgCl2, 1 mM DTT, 10% glycerol), 25 to 85 °C in 0.3 °C increments, triplicate, Boltzmann fit) [°C] | Effect of reduced conditions on thermal stability ([1]; reduced conditions) | Concentration above which less stability is exhibited [2] | Rate reduction of ClpX ATP hydrolysis [3] | Concentration reached without any sign of precipitation [2] | Stimulation of ClpP2 proteolytic activity by DTT [4] |
| --- | --- | --- | --- | --- | --- | --- |
| ClpP2: recombinant C. difficile ClpP2 (YP_001089868.1), homotetradecamer | 46.5 | no significant effect on the thermal stability | exceeding 12.5 mg/mL | ~ 7% | – | – |
| ClpP1: recombinant C. difficile ClpP1 (YP_001089821.1), homotetradecamer, prepared from ΔEcClpP E. coli unless otherwise noted | – | – | – | ~ 18% | ~ 60 mg/mL | – |
| O[C@@H](CS)[C@@H](O)CS (racemic) [dithiothreitol (DTT), dithiothreitol] | – | – | – | – | – | failed to stimulate proteolytic activity |
